Test results taken from article PMC7398979.

Legend:
[1] = biological target: sulfur oxygenase reductase from Sulfurisphaera tokodaii (Sulfurisphaera tokodaii strain 7); test: cryo-EM structure; single particle analysis, 10 mg/mL in 20 mM Tris-HCl pH 8.0, 150 mM NaCl; sample partially purified (heat treatment, gel filtration); 200 kV Talos Arctica; octahedral symmetry imposed, 2.24 Å (C1: 2.73 Å)
[2] = biological target: sulfur oxygenase reductase from Sulfurisphaera tokodaii (Sulfurisphaera tokodaii strain 7); test: crystal structure; sitting drop at 20 °C, 1.2 M ammonium sulfate, 100 mM MES-NaOH pH 6.1, 4% dioxane; space group I23, 8 monomers per asymmetric unit; 1.73 Å
[3] = biological target: sulfur oxygenase reductase from Sulfurisphaera tokodaii (Sulfurisphaera tokodaii strain 7); test: SEC; gel filtration on HiLoad 16/600 Superdex 200 pg; standards thyroglobulin (669 k), pyruvate kinase (237 k), ovalbumin (44 k), RNaseA (14 k); peak at 539 kDa

stoichiometry N [1]: 24
stoichiometry N [2]: 24
stoichiometry N [3]: 15 to 16
Substance: sulfur oxygenase reductase from Sulfurisphaera tokodaii (enzyme)
